Measurements taken from patent publication US20210332339A1.

Key:
[1] = biological target: RRR-type mutant ZFA36-ND1 (ZFA36 zinc finger array, TGAAARA linker, ND1 D489R/N543R) (Bacillus SGD-V-76); experiment: cell-based or functional assay
[2] = biological target: RRR-type mutant ZFA36-FokI-ND (ZFA36 zinc finger array, TGAAARA linker, FokI nuclease domain D483R/H537R) (UniProt P14870); experiment: cell-based or functional assay
RRR-type mutant ZFA36-FokI-ND (ZFA36 zinc finger array, TGAAARA linker, FokI nuclease domain D483R/H537R), sequence (P14870 other isoform, or with tags, fused parts or gaps D483R H537R D483R H537R): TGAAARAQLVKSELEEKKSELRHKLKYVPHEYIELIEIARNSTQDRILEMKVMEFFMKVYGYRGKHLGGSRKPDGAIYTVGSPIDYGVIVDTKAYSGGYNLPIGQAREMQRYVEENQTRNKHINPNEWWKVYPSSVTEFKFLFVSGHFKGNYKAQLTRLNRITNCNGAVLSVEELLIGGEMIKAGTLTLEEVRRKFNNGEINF

Row | cleavage activity of the reporter, SSA reporter assay, relative to the FokI-ND homodimer type [1] [%] | cleavage activity of the target sequence (ZFL1-ZFA36) on the reporter, SSA reporter assay, relative to ZFA36-FokI [2] [%] | cleavage activity of the target sequence (ZFL1-ZFA36) on the reporter, SSA reporter assay, relative to ZFA36-FokI [1] [times] | cleavage activity of the reporter, SSA reporter assay [2] [%] | Substance
1 | 60 | 60 | – | – | DDD-type mutant ZFL1-FokI-ND (hPGRN_ZFL1 zinc finger array, TGAAARA linker, FokI nuclease domain R487D/N496D) (from UniProt P14870 384-579) (enzyme)
2 | – | – | 1.6 | 80 | DDD-type mutant ZFL1-ND1 (hPGRN_ZFL1 zinc finger array, TGAAARA linker, ND1 R493D/N502D) (enzyme)
